B1: Speckle-type POZ protein (Homo sapiens), O43791 (parent)
chain: MSRVPSPPPPAEMSSGPVAESWCYTQIKVVKFSYMWTINNFSFCREEMGEVIKSSTFSSGANDKLKWCLRVNPKGLDEESKDYLSLYLLLVSCPKSEVRAKFKFSILNAKGEETKAMESQRAYRFVQGKDWGFKKFIRRDFLLDEANGLLPDDKLTLFCEVSVVQDSVNISGQNTMNMVKVPECRLADELGGLWENSRFTDCCLCVAGQEFQAHKAILAARSPVFSAMFEHEMEESKKNRVEINDVEPEVFKEMMCFIYTGKAPNLDKMADDLLAAADKYALERLKVMCEDALCSNLSVENAAEILILADLHSADQLKTQAVDFINYHASDVLETSGWKSMVVSHPHLVAEAYRSLASAQCPFLGPPRKRLKQS
partner: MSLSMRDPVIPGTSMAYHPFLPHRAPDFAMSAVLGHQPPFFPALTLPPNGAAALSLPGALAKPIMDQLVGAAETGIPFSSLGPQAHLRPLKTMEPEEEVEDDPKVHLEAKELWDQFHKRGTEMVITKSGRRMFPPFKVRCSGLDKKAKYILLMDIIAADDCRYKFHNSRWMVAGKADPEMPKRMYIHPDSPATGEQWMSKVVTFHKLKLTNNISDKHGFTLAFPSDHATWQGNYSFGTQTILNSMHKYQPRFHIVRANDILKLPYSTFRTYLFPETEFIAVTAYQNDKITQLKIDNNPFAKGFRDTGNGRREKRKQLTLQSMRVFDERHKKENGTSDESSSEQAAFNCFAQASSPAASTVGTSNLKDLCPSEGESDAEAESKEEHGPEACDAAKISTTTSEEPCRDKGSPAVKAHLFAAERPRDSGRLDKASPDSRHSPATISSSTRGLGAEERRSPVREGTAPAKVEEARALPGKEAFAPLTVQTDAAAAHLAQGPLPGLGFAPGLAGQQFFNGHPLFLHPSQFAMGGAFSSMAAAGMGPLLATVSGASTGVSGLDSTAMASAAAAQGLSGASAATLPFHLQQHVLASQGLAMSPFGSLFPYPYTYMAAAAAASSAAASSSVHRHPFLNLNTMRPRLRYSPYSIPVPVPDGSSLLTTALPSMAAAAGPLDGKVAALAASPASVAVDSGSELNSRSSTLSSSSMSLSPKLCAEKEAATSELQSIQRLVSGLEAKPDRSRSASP
B2: Speckle-type POZ protein (Homo sapiens), O43791 (parent)
chain: B1 chain
partner: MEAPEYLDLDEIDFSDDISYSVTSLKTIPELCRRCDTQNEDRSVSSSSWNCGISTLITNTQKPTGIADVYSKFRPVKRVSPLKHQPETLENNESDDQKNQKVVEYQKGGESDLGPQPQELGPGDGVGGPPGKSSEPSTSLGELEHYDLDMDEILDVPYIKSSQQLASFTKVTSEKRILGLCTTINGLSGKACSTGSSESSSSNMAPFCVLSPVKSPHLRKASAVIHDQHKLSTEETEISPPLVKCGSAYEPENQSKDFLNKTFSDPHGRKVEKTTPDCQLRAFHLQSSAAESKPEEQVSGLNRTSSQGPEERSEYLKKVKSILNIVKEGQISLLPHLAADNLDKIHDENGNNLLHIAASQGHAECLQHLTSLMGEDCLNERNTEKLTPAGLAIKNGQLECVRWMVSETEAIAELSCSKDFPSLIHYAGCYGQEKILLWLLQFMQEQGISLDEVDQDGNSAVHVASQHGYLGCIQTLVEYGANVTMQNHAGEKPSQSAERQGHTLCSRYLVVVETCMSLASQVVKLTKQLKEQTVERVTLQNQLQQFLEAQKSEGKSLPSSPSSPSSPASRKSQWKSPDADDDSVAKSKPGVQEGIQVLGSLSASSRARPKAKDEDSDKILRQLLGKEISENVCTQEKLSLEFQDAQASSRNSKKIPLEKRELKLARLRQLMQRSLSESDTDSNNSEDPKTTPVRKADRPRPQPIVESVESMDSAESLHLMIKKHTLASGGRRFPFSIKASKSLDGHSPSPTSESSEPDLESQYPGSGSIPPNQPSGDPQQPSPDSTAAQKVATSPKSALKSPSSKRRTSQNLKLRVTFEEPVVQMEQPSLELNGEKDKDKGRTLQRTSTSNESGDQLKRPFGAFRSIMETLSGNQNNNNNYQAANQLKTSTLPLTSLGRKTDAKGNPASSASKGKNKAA
B3: Speckle-type POZ protein (Homo sapiens), O43791 (parent)
chain: B1 chain
partner: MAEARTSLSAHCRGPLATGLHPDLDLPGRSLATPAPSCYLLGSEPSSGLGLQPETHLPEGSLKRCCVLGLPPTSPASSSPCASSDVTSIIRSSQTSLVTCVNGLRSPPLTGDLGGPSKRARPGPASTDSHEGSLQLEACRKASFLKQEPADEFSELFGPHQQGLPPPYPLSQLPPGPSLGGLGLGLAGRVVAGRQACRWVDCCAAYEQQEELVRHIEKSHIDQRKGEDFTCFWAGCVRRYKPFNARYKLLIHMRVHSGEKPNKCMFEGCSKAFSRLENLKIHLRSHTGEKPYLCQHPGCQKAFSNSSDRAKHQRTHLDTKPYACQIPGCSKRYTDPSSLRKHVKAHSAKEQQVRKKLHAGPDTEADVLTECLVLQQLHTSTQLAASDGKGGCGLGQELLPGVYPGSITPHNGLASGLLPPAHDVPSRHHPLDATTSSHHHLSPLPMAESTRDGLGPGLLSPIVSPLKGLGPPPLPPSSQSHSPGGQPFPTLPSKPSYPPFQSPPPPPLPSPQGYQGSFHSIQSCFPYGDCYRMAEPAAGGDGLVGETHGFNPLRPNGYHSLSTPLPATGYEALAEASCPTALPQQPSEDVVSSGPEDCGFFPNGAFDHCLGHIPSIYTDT
B4: Speckle-type POZ protein (Homo sapiens), O43791 (parent)
chain: B1 chain
partner: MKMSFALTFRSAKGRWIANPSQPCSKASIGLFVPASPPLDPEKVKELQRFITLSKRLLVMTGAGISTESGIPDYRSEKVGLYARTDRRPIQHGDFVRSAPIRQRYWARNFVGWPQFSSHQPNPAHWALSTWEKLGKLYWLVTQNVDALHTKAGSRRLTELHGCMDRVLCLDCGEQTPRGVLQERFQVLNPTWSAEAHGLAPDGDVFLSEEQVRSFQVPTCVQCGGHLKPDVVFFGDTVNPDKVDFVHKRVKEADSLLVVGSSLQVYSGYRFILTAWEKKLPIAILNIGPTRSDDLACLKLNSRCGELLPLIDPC
B5: Speckle-type POZ protein (Homo sapiens), O43791 (parent)
chain: B1 chain
partner: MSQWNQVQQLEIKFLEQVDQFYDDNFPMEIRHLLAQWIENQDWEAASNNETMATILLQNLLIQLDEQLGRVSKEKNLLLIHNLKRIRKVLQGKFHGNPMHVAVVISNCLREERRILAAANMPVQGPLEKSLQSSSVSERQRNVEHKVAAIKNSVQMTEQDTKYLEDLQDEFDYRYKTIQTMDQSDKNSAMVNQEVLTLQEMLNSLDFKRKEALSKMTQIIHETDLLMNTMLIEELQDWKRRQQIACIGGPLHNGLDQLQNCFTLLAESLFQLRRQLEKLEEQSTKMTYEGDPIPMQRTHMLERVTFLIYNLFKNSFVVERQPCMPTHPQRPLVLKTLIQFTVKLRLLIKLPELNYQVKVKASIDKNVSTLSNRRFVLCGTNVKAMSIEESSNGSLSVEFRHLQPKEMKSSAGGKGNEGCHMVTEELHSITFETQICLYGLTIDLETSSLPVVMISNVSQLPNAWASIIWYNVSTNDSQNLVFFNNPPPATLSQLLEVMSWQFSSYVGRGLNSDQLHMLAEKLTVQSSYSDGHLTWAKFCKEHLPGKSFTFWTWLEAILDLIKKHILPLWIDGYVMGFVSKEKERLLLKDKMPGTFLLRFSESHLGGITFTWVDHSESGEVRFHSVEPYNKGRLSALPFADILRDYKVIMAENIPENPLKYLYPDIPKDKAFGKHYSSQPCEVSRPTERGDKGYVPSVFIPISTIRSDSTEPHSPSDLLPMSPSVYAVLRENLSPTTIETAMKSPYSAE

The source of these data is IntAct's records for PubMed 35512704.

One assay covers variants of B1. Conditions: with tbx3_human TBX3, O15119.
Turning to F133V, the “effect of a mutation on the interaction” value is listed as “with no effect”.

In the next assay the parent is B1. The conditions noted are these: with tbx3_human TBX3, O15119. The source holds these as a separate data set.
For the variant Y87C, the “effect of a mutation on the interaction” value is listed as “with no effect”.

The variants in another assay derive from B2. Conditions: with sncap_human SNCAIP.
Take F102C: the “effect of a mutation on the interaction” value was “with no effect”.

Variants of B2 are the subject of a further assay. The conditions noted are these: with sncap_human SNCAIP. This is another data set of the same source.
Consider F133L, for which the “effect of a mutation on the interaction” value is listed as “with no effect”.

In the next assay the parent is B2. Conditions: with sncap_human SNCAIP. The source holds these as a separate data set.
In the case of F133V, the “effect of a mutation on the interaction” value was “with no effect”.

The variants in another assay derive from B2. The conditions noted are these: with sncap_human SNCAIP. This is another data set of the same source.
In the case of Y87C, the “effect of a mutation on the interaction” value is on record as “with no effect”.

Variants of B3 are the subject of another assay. Conditions: with glis1_human GLIS1, Q8NBF1.
Consider Y87C, for which the “effect of a mutation on the interaction” value is “with no effect”.

The variants in the next assay derive from B3. Conditions: with glis1_human GLIS1, Q8NBF1. The source holds these as a separate data set.
Consider F133L, for which the “effect of a mutation on the interaction” value is given as “with no effect”.

In another assay the parent is B4. The conditions noted are these: with sir4_human SIRT4, Q9Y6E7.
As for Y87C, the “effect of a mutation on the interaction” value was “with no effect”.

Variants of B4 are the subject of a further assay. The conditions noted are these: with sir4_human SIRT4, Q9Y6E7. This is another data set of the same source.
As to F102C, the “effect of a mutation on the interaction” value is recorded as “with no effect”.

Variants of B4 are the subject of a further assay. Conditions: with sir4_human SIRT4, Q9Y6E7. This is another data set of the same source.
In the case of F133V, the “effect of a mutation on the interaction” value is “with no effect”.

Variants of B4 are the subject of a further assay. Conditions: with sir4_human SIRT4, Q9Y6E7. The source holds these as a separate data set.
For the variant F133L, the “effect of a mutation on the interaction” value was “with no effect”.

The variants in the next assay derive from B5. The conditions noted are these: with stat4_human STAT4, Q14765.
For F133V, the “effect of a mutation on the interaction” value is on record as “with no effect”.

In another assay the parent is B5. Conditions: with stat4_human STAT4, Q14765. The source holds these as a separate data set.
As for F133L, the “effect of a mutation on the interaction” value is reported as “with no effect”.

The next assay covers variants of B5. The conditions noted are these: with stat4_human STAT4, Q14765. The source holds these as a separate data set.
In the case of Y87C, the “effect of a mutation on the interaction” value is “with no effect”.
